# Assay results published in the supplement of paper PMC12042874.
# ± gives the uncertainty stated by the source.
# Assay: amyloid nucleation score (Sup35N fusion, yeast selection) (log enrichment); library NNK1; higher = more nucleation; inactive = no reads after selection
# Summary of the method: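 On medium lacking adenine and uracil, psi-negative yeast expressing peptides of 20 random codons fused to Sup35N were grown 7 days at 30°C after a 24-hour induction with 100 μM copper sulfate. Illumina sequencing of input and output plasmid inserts gave the reads, and sequences under 100 input reads were excluded. The nucleation score is the DiMSum log enrichment of output over input reads, centred on the mode score of non-aggregating sequences.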
row,Substance,amyloid nucleation score
1,LCFVPGS,3.73 ± 0.073
2,LCGDAPREDYSHGYVLNQVG,0.352 ± 0.78
3,LCGHF,4.35 ± 0.051
4,LCITQKYRFSLHNLHQPTDW,1.93 ± 0.45
5,LCLFGSWLKKLKYNRFLFVG,-1.18 ± 1.7
6,LCSHAIFCSSCGRFVLMEAC,inactive
7,LCSIN,-0.876 ± 0.99
8,LDAKVFRVALAYYLPPGP,0.789 ± 0.53
9,LDETIQSNRDTHLCQFA,-0.29 ± 0.56
10,LDFIKWAYNWCRLIVGIGGC,-0.476 ± 1.9
11,LDGFSVNLCWFRHTERCVAC,-0.224 ± 0.78
12,LDQKTFWLSVPVSWQIPADM,0.477 ± 0.61
13,LDRSTSSLIMSSCLMYRESS,1.33 ± 0.29
14,LDSARMGLFITGMV,-1.06 ± 0.87
15,LDTGVMMEIKICIHYRDCYD,1.84 ± 0.21
16,LDVCCEYPSKSSVMEWQVWL,1.02 ± 0.54
17,LEASSIISSRTPG,-0.93 ± 2.4
18,LEFRPRFSSISYHMIMFVGH,inactive
19,LEGITELWRVMSYLMMTMVR,-0.457 ± 1.1
20,LEHYRVVLLG,-0.535 ± 0.43
21,LEILL,0.145 ± 0.45
22,LEKINQVSGLDFRRIEFEPS,-0.172 ± 1.2

row,Substance,amyloid nucleation score
1,LELLMVKILSSLYDIMIFCC,inactive
2,LEMDRICMMLSDSRFKLTLV,-0.025 ± 0.21
3,LFAIKYCDVSD,0.286 ± 0.43
4,LFETI,0.746 ± 0.71
5,LFFHL,0.83 ± 0.79
6,LFFLLLNHRAVVVLLWCHFT,-1.19 ± 0.91
7,LFGSEVTWYLTSGCDKPFLH,0.087 ± 0.48
8,LFIVPRRGARRYRVVITKSV,0.003 ± 0.46
9,LFIVTFSYFLSPRLVQWYAL,0.516 ± 0.67
10,LFLECNDTLHRATTGVNLFK,0.206 ± 1.6
11,LFLHPMYMMKAASASGITVV,-0.1 ± 0.57
12,LFLIV,-0.08 ± 0.24
13,LFNYPS,-0.948 ± 1.1
14,LFPIDSVNGTDWMTRMRDKI,inactive
15,LFREQW,0.228 ± 0.85
16,LFRFCTIILLAYGLSLCNDI,inactive
17,LFRWEGVATACSCGDDASFA,-0.668 ± 1.1
18,LFSCWQSGRVNKYYVDGSMG,-0.206 ± 0.97
19,LFSYMYLEVDMSESMIRYL,1.02 ± 0.31
20,LFTCVQFIMGVDDRWKRARS,2.19 ± 0.26
21,LFTRIFSLSMYVPNCFRYAY,1.02 ± 0.39
22,LFYCRALRYFASHLDASNMH,-1.09 ± 0.84

row,Substance,amyloid nucleation score
1,LGCSFR,-0.065 ± 1.4
2,LGGFSMRVNEVVLPGVRFGD,-0.037 ± 1.7
3,LGHGHIDGQYKGYRVKWTYD,-0.644 ± 0.35
4,LGHIILSAFFYRSFNLEVSL,inactive
5,LGLGDGLLVRFNKFCGLMGR,-0.153 ± 1.2
6,LGLRFTCRLFGCIYTRASIM,-0.735 ± 1.7
7,LGMIADYQKQKMMSSGTSLR,0.289 ± 0.69
8,LGPNW,-0.356 ± 0.53
9,LGPVLFKLLRETCAQSYKVM,-0.005 ± 0.67
10,LGPYQTCR,1.58 ± 0.72
11,LGQEL,0.416 ± 0.39
12,LGRKFT,2.05 ± 0.41
13,LGSDDLLKVSFFFVSLGS,-0.087 ± 1.2
14,LGSGQGVNLSALPRFEYACR,0.527 ± 0.44
15,LGSMSPVGLTKYLGDGEEVV,-0.036 ± 0.55
16,LGSWRFMLAVI,0.375 ± 0.48
17,LGTLMSPPTRTDFMHPRYRV,1.51 ± 0.48
18,LGYKSGVFLWGFRFHP,-1.35 ± 2.1
19,LHGLNF,0.843 ± 0.74
20,LHGPVFYKFACVVASPWGSI,-0.235 ± 0.41
21,LHIAMTVYC,2.42 ± 0.13
22,LHLPYGCTASAICQFECSGW,3 ± 0.15

row,Substance,amyloid nucleation score
1,LHNERRSVISTPYRQSEAGL,0.707 ± 0.43
2,LHSQKGILSLSSPI,-0.223 ± 0.32
3,LICPSLHPRAVGECSSVCWR,0.157 ± 0.19
4,LIENTGLHRENISRAPGGR,-0.469 ± 0.83
5,LIHRA,-0.041 ± 0.32
6,LIIKEFITLLSPCWELLRIR,0.901 ± 0.9
7,LIINGD,0.609 ± 1.2
8,LIKGWSYPGVPCVGLLMDGK,0.27 ± 0.33
9,LIKKKSNSIYMI,-0.062 ± 0.3
10,LINMYSMDMTTDHAPAYKLD,-0.302 ± 0.47
11,LIQWENGTH,-0.672 ± 0.34
12,LIRNKIRR,-1.12 ± 0.93
13,LIWFVYMD,0.347 ± 0.55
14,LIWSHVLDGYSCEKPSNRMC,-0.662 ± 0.98
15,LKARQHFRNHHGMLVQKRWD,inactive
16,LKCFRLS,0.327 ± 0.55
17,LKEDISPSELHTQLC,0.81 ± 0.54
18,LKHDRSNR,0.345 ± 1.2
19,LKNGSDSILDARVYLGG,-0.221 ± 0.51
20,LKRVCNS,0.002 ± 0.63
